Laboratory results reported in US8546083B2, “Molecular accessibility assay” (University of Vermont, priority 2007, dated 2013).

Columns and labels:
[1] = Fluorescence of DAPI binding to double stranded DNA; details: 50 nM double stranded DNA, 100 nM DAPI, 10 mM Tris-HCl pH 8.0, 50 mM NaCl, 5 minutes room temperature
Experimental: (§1) For gel-based substrates, completed reactions were mixed with a dye-free SDS loading buffer (50 mM Tris-HCl (pH 6.8), 100 mM dithiothreitol, 4% SDS, 10% glycerol), heated to 90° C. for 5 minutes, separated by 12% SDS-PAGE, and visualized by PhosphorImager analysis (Bio-Rad Molecular Imager FX) (Bio-Rad Laboratories, Hercules, Calif.). For all other substrates, an equal volume of 200 nM DAPI in 10 mM Tris-HCl (pH 8.0) and 50 mM NaCl was added and incubated for 5 minutes at room temperature prior to fluorescence detection. Final concentrations of the fluorescence effecting molecules at the time of detection in these experiments were 100 nM DAPI, 50 nM substrate, and 25-800 nM enzyme.
(§2) Fluorescence readings were made on a Synergy HT Multi-Detection Microplate Reader (BIO-TEK) using a tungsten-halogen lamp and 360/40 bandpass excitation filter in conjunction with a 460/40 emission filter. Corning Half Area, NBS treated (Nonbinding Surface), Black, 96-well Microplates plates (Corning #3686) were used for all DAPI-based experiments. The combination of enzymes, DNA, and DAPI were all shown to contribute linearly to changes in the overall fluorescence based on the range of concentrations used; there was therefore no need to correct for the inner filter effect.
Each of the 4L, 5L, 5R, and N5R substrates, along with their non-damaged counterparts, were initially tested for their ability to associate with DAPI and thereby affect the detected fluorescence. […] In the absence of DNA, there was only a small increase in fluorescence from the addition of DAPI, as would be expected. The differences in fluorescence for each of the DAPI bound substrates are presumably due to both, sequence context and experimental variations in DNA concentration. For example, the 4L sequence is expected to have a lower total fluorescence due to the importance of the 3′ nucleotide following the 5′-AATT-3′ binding sequence in regards to fluorescence intensity (38). Due to the fact that the molecular accessibility assay is based on relative fluorescence, these differences are inconsequential.

4L substrate = assay: DAPI molecular accessibility assay, active fraction determination, 4L substrate; assay type: biochemical; details: for activity (100*α): 100 nM 4L substrate, 50 mM sodium borohydride; for active fraction / calculated α value: 4L sequence; for active fraction: NaBH4 and NaCNBH3
Experimental: (§3) Oligonucleotide substrates were purchased from Midland Certified Reagent Co. (Midland, Tex.) and were PAGE purified prior to use. All gel-based comparisons were performed with the following double stranded substrate: (35DHU) 5′-TET-tgtcaatagcaagnggagaagtcaatcgtgagtct-3′ (SEQ ID NO:1) where TET represents the fluorescent label 6-tetrachlorofluorescein and n=5,6-dihydrouracil (DHU). Molecular accessibility DAPI-based experiments were performed with the following double-stranded substrates: (4L) 5′-gccccgccaattnccgccgccgcc-3′ (SEQ ID NO:2), (5L) 5′-gccccgccaattcnccgccgccgcc-3′(SEQ ID NO:3), (5R) 5′-gccccgccgccccgccnaattccgccgccgcc-3′ (SEQ ID NO:4), and (N5R) 5′-gccccgccgccccgccncaattccgccgccgcc-3′ (SEQ ID NO:5) where n=either DHU for damaged substrates or cytosine for non-damaged controls. All complementary strands contained a G residue across from DHU (or across from the cytosine in controls—e.g. Watson-Crick base pairing) and were annealed in 50 mM Tris-HCl (pH 8.0), 50 mM NaCl by heating to 94° C. for 2 minutes and slowly cooling to 4° C. over the period of 1 hour in a Perkin Elmer DNA Thermal Cycler 480. In each case the ratio of damaged to complementary strand during annealing was 1:1.1. Note that the DAPI-based oligonucleotides all differ in location of the AT-rich region in relation to the damaged base.
(§4) EcoNth, EcoFpg, EcoNei, and NEIL1 were incubated for 30 minutes at 37° C. with 100 nM DHU:G-containing substrates at final concentrations of 50, 100, 200, 400, 800, 1200, or 1600 nM, in the presence of either 50 or 100 mM sodium borohydride (NaBH4) or sodium cyanoborohydride (NaCNBH3), as described in the Figures. Borohydride compounds were dissolved fresh for each independent experiment (one substrate and series of enzyme dilutions) as 1.25× stocks in Milli-Q water. Reactions were initiated by simultaneous addition of enzyme and borohydride solution to annealed substrates utilizing separate multi-pipettes in a 96-well format to a final volume of 100 μL. Except for EcoFpg trapping with sodium cyanoborohydride, the final buffer for each reaction contained 10 mM Tris-HCl (pH 8.0), 60 mM Na^+, and either 50 mM BH4^− or CNBH3^−. In the former case, the final buffer contained 10 mM Tris-HCl (pH 8.0), 110 mM Na^+, and 100 mM CNBH3^−.
as §1, §2
Given a sufficiently high concentration of trapping reagent, and a sufficiently long incubation time, the quantity of ES complex is related to the quantity of total enzyme added, ET, and total substrate added, ST, by the equation: ES=min(αET, βST) where α is the active enzyme fraction, P is the active substrate fraction (fraction cleavable), and min is the minimum function. […]

35DHU substrate = assay: Gel-based Schiff base trapping assay (SDS-PAGE, PhosphorImager), active fraction determination; assay type: biochemical; details: for α value (active enzyme fraction): 100 nM 35DHU; for active fraction: gel-based, from α values with NaBH4 and NaCNBH3
Experimental: as §3, §4, §1
Given a sufficiently high concentration of trapping reagent, and a sufficiently long incubation time, the quantity of ES complex is related to the quantity of total enzyme added, ET, and total substrate added, ST, by the equation: ES=min(αET, βST) where α is the active enzyme fraction, P is the active substrate fraction (fraction cleavable), and min is the minimum function. Furthermore, holding ST constant while varying ET can be depicted graphically (FIG. 1A) where the rising slope is equivalent to α, the plateau is equivalent to ST*β, and the breakpoint is defined by the relation: ST=(α/β)ET. Therefore, by varying ET from below to well above the constant ST concentration, the active enzyme fraction can be determined by linear regression of all points falling below the ET breakpoint concentration. The decision to include or exclude a given point pre-breakpoint is simply made so as to minimize the root-mean squared deviation from both the pre-breakpoint regression and the post-breakpoint best-fit line with a slope of zero. […]

5L substrate = assay: DAPI molecular accessibility assay, active fraction determination, 5L substrate; assay type: biochemical; details: 5L sequence, NaBH4 and NaCNBH3
Experimental: (§5) Oligonucleotide substrates were purchased from Midland Certified Reagent Co. (Midland, Tex.) and were PAGE purified prior to use. All gel-based comparisons were performed with the following double stranded substrate: (35DHU) 5′-TET-tgtcaatagcaagnggagaagtcaatcgtgagtct-3′ (SEQ ID NO:1) where TET represents the fluorescent label 6-tetrachlorofluorescein and n=5,6-dihydrouracil (DHU). […]
as §1
(§6) Fluorescence readings were made on a Synergy HT Multi-Detection Microplate Reader (BIO-TEK) using a tungsten-halogen lamp and 360/40 bandpass excitation filter in conjunction with a 460/40 emission filter. […]

N5R substrate = assay: DAPI molecular accessibility assay, active fraction determination, N5R substrate; assay type: biochemical; details: N5R sequence; for calculated α value: NaBH4 and NaCNBH3
Experimental: as §3
EcoNth, EcoFpg, EcoNei, and NEIL1 were incubated for 30 minutes at 37° C. with 100 nM DHU:G-containing substrates at final concentrations of 50, 100, 200, 400, 800, 1200, or 1600 nM, in the presence of either 50 or 100 mM sodium borohydride (NaBH4) or sodium cyanoborohydride (NaCNBH3), as described in the Figures. […]
as §1
Fluorescence readings were made on a Synergy HT Multi-Detection Microplate Reader (BIO-TEK) using a tungsten-halogen lamp and 360/40 bandpass excitation filter in conjunction with a 460/40 emission filter. […] The combination of enzymes, DNA, and DAPI were all shown to contribute linearly to changes in the overall fluorescence based on the range of concentrations used; there was therefore no need to correct for the inner filter effect. […]

5R substrate = assay: DAPI molecular accessibility assay, active fraction determination, 5R substrate; assay type: biochemical; details: 5R sequence, NaBH4 and NaCNBH3
Experimental: as §5, §1, §6

[2] = NaCNBH3 (50 mM EcoNth, 100 mM EcoFpg), 30 minutes 37° C.
[3] = EcoNth range stated jointly for 4L, 5L, 5R

Question: For 5′-gccccgccaattcnccgccgccgcc-3′ [5L], which “FI (Fluorescence Intensity)” value [1] is on record?
Answer: 65.9 ± 2.6 x10^−3

Question: With 5′-gccccgccaattnccgccgccgcc-3′ [4L] as the molecule, how does the “FI (Fluorescence Intensity)” value [1] read?
Answer: 55.2 ± 2.8 x10^−3

Question: Which “FI (Fluorescence Intensity)” value [1] does the source give for “5′-gccccgccgccccgccnaattccgccgccgcc-3′ [5R]” here?
Answer: 69.5 ± 2.9 x10^−3

Question: With “5′-gccccgccgccccgccncaattccgccgccgcc-3′ [N5R]” as the molecule, how does the “FI (Fluorescence Intensity)” value [1] read?
Answer: 60.7 ± 3.0 x10^−3

Question: With “NEIL1: human ortholog of endonuclease VIII, recent purification with good activity” as the molecule, how does the “activity (100*α)” value (4L substrate) read?
Answer: over 50%

B1: EcoNei: Escherichia coli endonuclease VIII, purification known to have little activity (protein, UniProt P50465 2-263, looked up)
Endonuclease 8: PEGPEIRRAADNLEAAIKGKPLTDVWFAFPQLKPYQSQLIGQHVTHVETRGKALLTHFSNDLTLYSHNQLYGVWRVVDTGEEPQTTRVLRVKLQTADKTILLYSASDIEMLTPEQLTTHPFLQRVGPDVLDPNLTPEVVKERLLSPRFRNRQFAGLLLDQAFLAGLGNYLRVEILWQVGLTGNHKAKDLNAAQLDALAHALLEIPRFSYATRGQVDENKHHGALFRFKVFHRDGEPCERCGSIIEKTTLSSRPFYWCPGCQH
Question: Which “activity (100*α)” value (4L substrate) does the source give for B1 here?
Answer: less than 5%

B2: EcoNth: Escherichia coli endonuclease III, purified recombinant enzyme preparation (protein, UniProt P0AB83 1-211, looked up)
Endonuclease III: MNKAKRLEILTRLRENNPHPTTELNFSSPFELLIAVLLSAQATDVSVNKATAKLYPVANTPAAMLELGVEGVKTYIKTIGLYNSKAENIIKTCRILLEQHNGEVPEDRAALEALPGVGRKTANVVLNTAFGWPTIAVDTHIFRVCNRTQFAPGKNVEQVEEKLLKVVPAEFKVDCHHWLILHGRYTCIARKPRCGSCIIEDLCEYKEKVDI
Question: Which results are given for B2?
Answer: α value (active enzyme fraction) (35DHU substrate; 50 mM NaBH4, 30 minutes 37° C.): 0.199; α value (active enzyme fraction) (35DHU substrate; [2]): 0.206; active fraction (35DHU substrate): approximately 20%; active fraction (4L substrate): 19-24%; active fraction (5L substrate): 19-24%; active fraction (N5R substrate; NaBH4 (first value, figure order)): approximately 12%; calculated α value (N5R substrate): lower; active fraction (N5R substrate; NaCNBH3 (second value, figure order)): ~16%

B3: EcoFpg: Escherichia coli formamidopyrimidine-DNA glycosylase, purified recombinant enzyme preparation (protein, UniProt P05523 2-269, looked up)
Formamidopyrimidine-DNA …: PELPEVETSRRGIEPHLVGATILHAVVRNGRLRWPVSEEIYRLSDQPVLSVQRRAKYLLLELPEGWIIIHLGMSGSLRILPEELPPEKHDHVDLVMSNGKVLRYTDPRRFGAWLWTKELEGHNVLTHLGPEPLSDDFNGEYLHQKCAKKKTAIKPWLMDNKLVVGVGNIYASESLFAAGIHPDRLASSLSLAECELLARVIKAVLLRSIEQGGTTLKDFLQSDGKPGYFAQELQVYGRKGEPCRVCGTPIVATKHAQRATFYCRQCQK
Question: Which “α value (active enzyme fraction)” value (35DHU substrate; 50 mM NaBH4, 30 minutes 37° C.) does the source give for B3 here?
Answer: 0.121

Question: And the “α value (active enzyme fraction)” value (35DHU substrate; [2])?
Answer: 0.147

Question: And the active fraction (35DHU substrate)?
Answer: approximately 13%

Question: And the “calculated α value” (4L substrate; 50 mM NaBH4)?
Answer: 0.154

Question: What about the “calculated α value” (4L substrate; 100 mM NaCNBH3) of the same molecule?
Answer: 0.136

Question: What about the active fraction (4L substrate) of the same molecule?
Answer: approximately 14%

Question: What about the “calculated α value” (5L substrate; [3]) of the same molecule?
Answer: significantly lower

Question: What about the active fraction (5R substrate) of the same molecule?
Answer: ~11%

Question: What about the “calculated α value” (5R substrate; [3]) of the same molecule?
Answer: slightly lower

Question: And the “calculated α value” (N5R substrate)?
Answer: significantly lower
